Patent publication US20050208610

What was measured:
[1] = molecular target: T1, peptide CR002 (amino acids 41-60)
T1 chain: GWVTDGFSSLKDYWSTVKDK

[2] = molecular target: T2, peptide CR006 (amino acids 49-62)
T2 chain: SLKDYWSTVKDKFS

B1: TF:VIIa complex (protein)
chain 1: SGTTNTVAAYNLTWKSTNFKTILEWEPKPVNQVYTVQISTKSGDWKSKCFYTTDTECDLTDEIVKDVKQTYLARVFSYPAGNVESTGSAGEPLYENSPEFTPYLETNLGQPTIQSFEQVGTKVNVTVEDERTLVRRNNTFLSLRDVFGKDLIYTLYYWKSSSSGKKTAKTNTNEFLIDVDKGENYCFSVQAVIPSRTVNRKSTDSPVECMGQEKGEFREIFYIIGAVVFVVIILVIILAISLHKCRKAGVGQSWKENSPLNVS
chain 2: ANAFLEELRPGSLERECKEEQCSFEEAREIFKDAERTKLFWISYSDGDQCASSPCQNGGSCKDQLQSYICFCLPAFEGRNCETHKDDQLICVNENGGCEQYCSDHTGTKRSCRCHEGYSLLADGVSCTPTVEYPCGKIPILEKRNASKPQGRIVGGKVCPKGECPWQVLLLVNGAQLCGGTLINTIWVVSAAHCFDKIKNWRNLIAVLGEHDLSEHDGDEQSRRVAQVIIPSTYVPGTTNHDIALLRLHQPVVLTDHVVPLCLPERTFSERTLAFVRFSLVSGWGQLLDRGATALELMVLNVPRLMTQDCLQQSRKVGDSPNITEYMFCAGYSDGSKDSCKGDSGGPHATHYRGTWYLTGIVSWGQGCATVGHFGVYTRVSQYIEWLQKLMRSEPRPGVLLRAPFP
With B1 the “2-stage chromogenic substrate assay that determines TF:VIIa-mediated activation of factor X” value [1] was “retained the ability to inhibit TF:VIIa mediated activation of factor X, but at much lower potency than the apolipoprotein CIII fragment”, the “2-stage chromogenic substrate assay that determines TF:VIIa-mediated activation of factor X” value (peptide CR003) was “showed no inhibitory activity in the chromogenic substrate assay” and the “2-stage chromogenic substrate assay that determines TF:VIIa-mediated activation of factor X” value (peptide CR004) was “showed no inhibitory activity in the chromogenic substrate assay”. For the same protein, the “2-stage chromogenic substrate assay that determines TF:VIIa-mediated activation of factor X” value (peptide CR005) was “showed no inhibitory activity in the chromogenic substrate assay” and the “2-stage chromogenic substrate assay that determines TF:VIIa-mediated activation of factor X” value [2] was “Progressive loss of potency was shown as additional N-terminal residues were removed (CR006; amino acids 49-62)”.
